Broadly, the stoichiometry N is a count of units in the complex or per binding partner.

Read-outs that look alike come from different tables or passages of the source.

The target in assay [1] is AcrB_(P223G)-CFP (E. coli) (UniProt P31224). Put plainly: FRET or BRET. In general terms: In BRET a luciferase serves as donor, and the signal depends on an acceptor being close.
For assay [2] the target is unchanged. Put plainly: FRET or BRET. The source holds these as a separate data set.
In assay [3] the target is AcrB_(V225C/A777C) (E. coli) (UniProt P31224). Put plainly: cross-linking.
In assay [4] the target is AcrB-CFP (E. coli) (UniProt P31224). Put plainly: FRET or BRET.
For assay [5] the target is unchanged. The assay is described as follows: FRET or BRET. The source holds these as a separate data set.
A further assay deals with AcrB_(P223G) (E. coli) (UniProt P31224). Put plainly: native gel or EMSA. For orientation: A gel shift assay detects complexes by their altered migration in electrophoresis.
Assay [6] deals with AcrB_(P223G/V225C/A777C) (E. coli) (UniProt P31224). The assay is described as follows: cross-linking.

For the substance “AcrB_(P223G)-YPet (from UniProt P31224 1-1049) (natural protein)”, the FRET efficiency in assay [1] came out at 26%; in assay [2] it was 22%. In assay [3], “AcrB_(V225C/A777C) (from UniProt P31224 1-1049) (natural protein)” showed a stoichiometry N of 3. With “AcrB-YPet (from UniProt P31224 1-1049) (natural protein)”, the FRET efficiency in the assay with AcrB-CFP (E. coli) [4] stood at 35%; in the assay with AcrB-CFP (E. coli) [5], 50%. As for “AcrB_(P223G) (from UniProt P31224 1-1049) (natural protein)”, in the assay with AcrB_(P223G) (E. coli), the stoichiometry N is 3. For the substance “AcrB_(P223G/V225C/A777C) (from UniProt P31224 1-1049) (natural protein)”, in assay [6], the stoichiometry N worked out at 3.

For the origin of these results see paper PMC6216019.
